Test results reported in patent US20110190477A1 (G2 INFLAMMATION, published 2011).
No end group written: not given here. *: point of attachment. Biotin = O=C1N[C@H]2[C@H](CS[C@H]2CCCCC(=O)*)N1

Legend:
[1] = molecular target: T1, peptide PEP1 (residues 9-29 of human C5aR) (human); assay: ELISA, PEP1 coated at 10, 2 and 1 µg/ml
T1 construct: Coated directly on a MaxiSorp plate; also called N-terminal 9-29 peptide
T1 peptide: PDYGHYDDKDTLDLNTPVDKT
Description: A 384-well MaxiSorp plate (Nunc) was coated with a peptide corresponding to residues 9-29 of human C5aR (PEP1), at concentrations of 1-15 μg/ml in PBS/0.01% Tween-20 at 37° C. for 1.5 hours, then washed 3 times. The plate was blocked with 20 μl of blocking buffer (1% w/v BSA in PBS) per well for overnight at 4° C. The plate was washed 3 times with PBS/Tween buffer (0.05% v/v Tween-20 in PBS). 20 μl antibody (final concentration 5 μg/ml) was added to each well and the plate was incubated for 2 hours at 37° C. The plate was washed 3 times as above then 20 μl HRP-conjugated anti-human IgG kappa (1:8000 dilution in PBS/Tween 20) or HRP-conjugated anti-mouse IgG (1:7500 dilution) was added to each well. After a 2 hour incubation at room temperature the plate was washed 4 times (as above). The presence of peroxidase was detected by adding 20 μl of freshly prepared TMB Substrate reagent (BD Opt EIA) to each well and incubating at room temperature for 20 min. Finally after stopping the reaction with 20 μl 1M H₂SO₄ per well the plate was read at 450 nm (reference 620 nm) in a plate reader.
However, the anti-C5aR (CD88) mAb S5/1 (AbD Serotec, Cat No. MCA1283) which was raised against the human C5aR N-terminal peptide 1-31 did bind PEP1 at 5 μg/ml as expected.

[2] = molecular target: T2, peptide A8 (… with Ala at position 6, F4 of the epitope) (human); assay: peptide ELISA, alanine-scan peptides
T2 construct: The label A8 and position 6 follow from 'Peptides A2-A13 contained a single alanine substitution at each amino acid position from 12 to 1 respectively'
T2 peptide: Biotin-SGSGVREEYAPPKVLC
Description: (§1) A 384 well streptavidin-coated plate (Nunc) was blocked with 20 μl of blocking buffer (1% w/v BSA in PBS) per well. The plate was washed 4 times with PBS/Tween20 buffer (0.1% v/v Tween 20 in PBS). 20 μl of diluted peptide solution was transferred into a well and the plate incubated for 1 hour at room temperature. After washing the plate 4 times (as above) 20 μl antibody (0.5, 1, 1.25, 2.5 or 5 μg/ml) was added to the well and the plate was incubated for 1 hour at 20° C. The plate was washed 4 times as above then 20 μlHRP-conjugated anti-mouse IgG (1:5000 dilution in PBS/Tween 20) was added to each well. After a 1 hour incubation at room temperature the plate was washed 3 times (as above) then twice with PBS to remove traces of Tween. The presence of peroxidase was detected by adding 20 μl of freshly prepared TMB Substrate reagent (BD Opt EIA) to each well and incubating at room temperature for 20 min. Finally the plate was read at 650 nm/450 nm.
(§2) Peptide A1 had no A1a substitution and peptide A14 was a scrambled version of peptide A1. Peptides A2-A13 contained a single alanine substitution at each amino acid position from 12 to 1 respectively. Binding of antibodies to the peptides coated on ELISA plates was carried out as described above.

[3] = molecular target: T3, peptide A9 (… with Ala at position 5, Y3 of the epitope) (human); assay: peptide ELISA, alanine-scan peptides
T3 construct: The label A9 and position 5 follow from 'Peptides A2-A13 contained a single alanine substitution at each amino acid position from 12 to 1 respectively'
T3 peptide: Biotin-SGSGVREEAFPPKVLC
Description: as §1, §2

[4] = molecular target: T4, peptide 3 (12 mer from the 2nd extracellular loop of human C5aR) (human); assay: peptide ELISA, biotin peptide on streptavidin plate
T4 construct: worked out from 22 12 mers offset by one over 173-205; also called peptide no
T4 peptide: Biotin-SGSGRVVREEYFPPKV
Excerpt: (§3) A set of 22 overlapping peptides (12 mers), each offset by 1 residue from the next, spanning the second extracellular loop (3rd extracellular domain) of human C5aR was synthesised (Mimotopes, Melbourne). Each peptide was made with a biotin group and 4-amino acid linker (SGSG) at its N-terminus. One peptide synthesised, no. 23, was a 33 mer, representing the full length of the 2nd extracellular loop of hC5aR (residues 173-205 from SEQ ID NO:37), also had biotin-SGSG at the N-terminus.
(§4) The experiment was conducted by binding the peptides to a 384-well streptavidin-coated plate then incubating the antibodies with the peptides and detecting bound antibody with an anti-mouse IgG conjugated to horse radish peroxidase (HRP) as follows. Each peptide was dissolved in 200 μl of 60% DMSO to a concentration of 10 mg/ml. Peptides were further diluted 1:1000 to a working strength of 10 μg/ml with PBS/Tween 20/azide solution (0.1% w/v sodium azide in PBS/0.05% Tween 20).
as §1

[5] = molecular target: T5, peptide 5 (12 mer from the 2nd extracellular loop of human C5aR) (human); assay: as above
T5 construct: worked out from 22 12 mers offset by one over 173-205; also called peptide no
T5 peptide: Biotin-SGSGVREEYFPPKVLC
Excerpt: as §3, §4, §1

[6] = molecular target: T6, peptide 1 (12 mer from the 2nd extracellular loop of human C5aR) (human, not fully specified); assay: as above
T6 construct: worked out from 22 12 mers offset by one over 173-205; also called peptide no
T6 peptide: Biotin-SGSGLYRVVREEYFPP
Excerpt: as §3, §4, §1

[7] = molecular target: T7, peptide 7 (12 mer from the 2nd extracellular loop of human C5aR) (human); assay: as above
T7 construct: worked out from 22 12 mers offset by one over 173-205; also called peptide no
T7 peptide: Biotin-SGSGEEYFPPKVLCGV
Excerpt: as §3, §4, §1

[8] = molecular target: T8, peptide 4 (12 mer from the 2nd extracellular loop of human C5aR) (human); assay: as above
T8 construct: worked out from 22 12 mers offset by one over 173-205; also called peptide no
T8 peptide: Biotin-SGSGVVREEYFPPKVL
Excerpt: as §3, §4, §1

[9] = molecular target: T9, peptide 6 (12 mer from the 2nd extracellular loop of human C5aR) (human); assay: as above
T9 construct: worked out from 22 12 mers offset by one over 173-205; also called peptide no
T9 peptide: Biotin-SGSGREEYFPPKVLCG
Excerpt: as §3, §4, §1

[10] = molecular target: T10, peptide 2 (12 mer from the 2nd extracellular loop of human C5aR) (human); assay: as above
T10 construct: worked out from 22 12 mers offset by one over 173-205; also called peptide no
T10 peptide: Biotin-SGSGYRVVREEYFPPK
Excerpt: as §3, §4, §1

B1: humanized anti-C5aR antibody hAb-J (antibody, human IgG4 S228P, kappa)
light: DVVMTQSPLSLPVTLGEPASISCRSSQSLVHSNGNTYLHWYLQKPGQSPQLLIYKVSNRFSGVPDRFSGSGSGTDFTLKISRVEAEDVGVYFCSQSTLVPLTFGQGTKLEIKTVAAPSVFIFPPSDEQLKSGTASVVCLLNNFYPREAKVQWKVDNALQSGNSQESVTEQDSKDSTYSLSSTLTLSKADYEKHKVYACEVTHQGLSSPVTKSFNRGEC
heavy: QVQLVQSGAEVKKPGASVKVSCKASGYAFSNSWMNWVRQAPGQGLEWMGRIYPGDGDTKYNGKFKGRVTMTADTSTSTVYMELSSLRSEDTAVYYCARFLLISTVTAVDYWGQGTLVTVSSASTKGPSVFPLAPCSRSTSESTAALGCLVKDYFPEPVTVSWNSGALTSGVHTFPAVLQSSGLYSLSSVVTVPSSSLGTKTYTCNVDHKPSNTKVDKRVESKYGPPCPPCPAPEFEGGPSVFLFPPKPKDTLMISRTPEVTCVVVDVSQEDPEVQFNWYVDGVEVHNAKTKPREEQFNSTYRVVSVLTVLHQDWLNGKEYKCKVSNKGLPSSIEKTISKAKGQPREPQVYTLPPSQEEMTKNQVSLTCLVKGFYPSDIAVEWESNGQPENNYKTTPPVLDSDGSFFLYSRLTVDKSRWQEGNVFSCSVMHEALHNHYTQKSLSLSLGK
notes: also called antibody J
- binding result [1]: no binding (tested: 5 µg/ml)
- binding result [2]: no binding
- binding result [3]: no binding

B2: mouse anti-C5aR monoclonal antibody 7F3 (antibody, V domains shown)
VH: QVQLQQSGPELVKPGASVKISCKASGYAFSNSWMNWVKQRPGKGLEWIGRIYPGDGDTKYNGKFKGKATLTADKSSSTAYMQLSSLTSEDSAVYFCARFLLISTVTAVDYWGQGTTLTVSS
VL: DVVMTQSPLSLPVSLGNQASISCRSSQSLVHSNGNTYLHWYLQKPGQSPKLLIYKVSNRFSGVPDRFSGSGSGTDFSLKISRVEAEDLGVYFCSQSTLVPLTFGAGTKLELK
notes: Mouse monoclonal from hybridoma ECACC 00110609; also called m7F3; mouse 7F3
- binding result [4]: binds
- binding result [5]: binds
- binding result [6]: binds
- binding result [7]: binds
- binding result [8]: binds
- binding result [9]: binds
- binding result [10]: binds

B3: humanized anti-C5aR antibody hAb-Q (antibody, human IgG4 S228P, kappa)
light: DVVMTQSPLSLPVTLGEPASISCRSSQSLVHSNGNTYLHWYLQKPGQSPQLLIYKVSNRFSGVPDRFSGSGSGTDFTLKISRVEAEDVGVYFCSQSTLVPLTFGQGTKLEIKRTVAAPSVFIFPPSDEQLKSGTASVVCLLNNFYPREAKVQWKVDNALQSGNSQESVTEQDSKDSTYSLSSTLTLSKADYEKHKVYACEVTHQGLSSPVTKSFNRGEC
heavy: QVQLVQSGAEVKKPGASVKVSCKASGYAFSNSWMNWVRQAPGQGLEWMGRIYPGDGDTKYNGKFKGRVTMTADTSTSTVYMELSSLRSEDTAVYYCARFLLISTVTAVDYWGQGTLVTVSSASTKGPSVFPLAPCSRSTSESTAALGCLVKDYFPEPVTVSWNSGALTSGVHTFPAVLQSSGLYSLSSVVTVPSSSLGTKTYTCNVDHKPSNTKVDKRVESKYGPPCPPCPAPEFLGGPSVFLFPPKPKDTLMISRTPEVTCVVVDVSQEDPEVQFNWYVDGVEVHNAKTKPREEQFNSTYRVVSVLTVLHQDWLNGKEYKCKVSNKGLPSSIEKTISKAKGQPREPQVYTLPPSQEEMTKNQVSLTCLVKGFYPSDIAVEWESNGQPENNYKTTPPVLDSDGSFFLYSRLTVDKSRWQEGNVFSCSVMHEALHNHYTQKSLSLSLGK
notes: IgG4 with the Ser228Pro mutation; also called antibody Q; anti-C5aR ab
- binding result [4]: binds
- binding result [5]: binds
- binding result [6]: binds
- binding result [7]: binds
- binding result [8]: binds
- binding result [9]: binds
- binding result [10]: binds
- binding result [1]: no binding (tested: 5 µg/ml)
- binding result [2]: no binding
- binding result [3]: no binding
